Experimental data as given in publication PMC8930771, “Structural basis of phosphatidylinositol 3-kinase C2α function” (Nature Structural & Molecular Biology, 2022).

What was measured:
[1] = molecular target: T1, PI3KC2α^ΔN+ΔPX−C2 WT (mouse PI3KC2α amino acids 377–1,400) (mouse, UniProt Q61194 377-1400); assay: pull-down; 10 μg immobilized GST fusion protein as bait, 200 μg PI3KC2α^ΔN+ΔPX−C2 WT or RBD mutant in 500 μl binding buffer (20 mM Tris, pH 7.5, 100 mM NaCl), 1 h at 4 °C, three washes; SDS-PAGE and Coomassie blue staining, quantified with ImageJ; details: both partners purified
T1 construct: Phosphatidylinositol 3-kinase type 2α (PI3KC2α), mouse, amino acids 377-1,400; lacks the disordered N-terminal region and the distal PX and C-C2 domains; Cloned into pFL10His; The purification paragraph names PI3KC2α^ΔN, ^ΔN+ΔC−C2, ^core 'and related mutants'; also called PI3KC2α^ΔN+ΔPX−C2 Wild-type (WT); source: Sf21 insect cells (baculovirus), purified (Nickel NTA, TEV cleavage, Superdex 200)
T1 sequence (looked up): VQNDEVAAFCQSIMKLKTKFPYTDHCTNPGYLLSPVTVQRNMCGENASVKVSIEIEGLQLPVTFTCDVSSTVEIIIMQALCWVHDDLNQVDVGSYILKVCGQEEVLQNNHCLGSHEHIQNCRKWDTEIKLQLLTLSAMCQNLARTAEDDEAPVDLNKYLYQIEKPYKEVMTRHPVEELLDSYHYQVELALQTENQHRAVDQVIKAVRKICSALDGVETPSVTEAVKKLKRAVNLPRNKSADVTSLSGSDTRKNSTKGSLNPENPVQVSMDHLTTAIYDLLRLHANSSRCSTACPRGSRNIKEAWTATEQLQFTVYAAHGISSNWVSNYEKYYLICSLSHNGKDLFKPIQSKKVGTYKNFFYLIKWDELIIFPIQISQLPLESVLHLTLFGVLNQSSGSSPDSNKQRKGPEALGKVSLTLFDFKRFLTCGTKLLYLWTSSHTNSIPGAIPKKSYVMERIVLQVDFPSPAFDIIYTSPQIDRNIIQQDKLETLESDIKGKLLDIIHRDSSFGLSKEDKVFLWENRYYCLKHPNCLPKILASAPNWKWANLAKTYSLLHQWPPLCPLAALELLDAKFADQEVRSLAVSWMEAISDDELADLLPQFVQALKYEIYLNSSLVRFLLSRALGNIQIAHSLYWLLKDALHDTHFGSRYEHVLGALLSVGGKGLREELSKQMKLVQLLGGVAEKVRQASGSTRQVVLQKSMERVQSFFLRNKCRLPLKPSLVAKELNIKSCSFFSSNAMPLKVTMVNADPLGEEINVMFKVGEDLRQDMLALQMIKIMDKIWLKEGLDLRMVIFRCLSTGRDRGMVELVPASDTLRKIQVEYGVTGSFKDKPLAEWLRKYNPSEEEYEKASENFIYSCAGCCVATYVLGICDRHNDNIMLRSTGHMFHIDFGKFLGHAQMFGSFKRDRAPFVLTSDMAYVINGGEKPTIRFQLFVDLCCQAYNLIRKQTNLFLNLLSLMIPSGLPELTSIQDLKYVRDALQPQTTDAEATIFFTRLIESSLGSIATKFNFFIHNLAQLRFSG

[2] = molecular target: T2, PI3KC2α^ΔN+ΔPX−C2 RBD mutant (K426A, W458A, D461A, D462A) (mouse, UniProt Q61194 377-1400, K426A | W458A | D461A | D462A); assay: as above; details: both partners purified
T2 construct: Phosphatidylinositol 3-kinase type 2α (PI3KC2α), mouse, amino acids 377-1,400, with four alanine substitutions in the RBD; source: Sf21 insect cells (baculovirus), purified (Nickel NTA, TEV cleavage, Superdex 200)
T2 sequence (looked up): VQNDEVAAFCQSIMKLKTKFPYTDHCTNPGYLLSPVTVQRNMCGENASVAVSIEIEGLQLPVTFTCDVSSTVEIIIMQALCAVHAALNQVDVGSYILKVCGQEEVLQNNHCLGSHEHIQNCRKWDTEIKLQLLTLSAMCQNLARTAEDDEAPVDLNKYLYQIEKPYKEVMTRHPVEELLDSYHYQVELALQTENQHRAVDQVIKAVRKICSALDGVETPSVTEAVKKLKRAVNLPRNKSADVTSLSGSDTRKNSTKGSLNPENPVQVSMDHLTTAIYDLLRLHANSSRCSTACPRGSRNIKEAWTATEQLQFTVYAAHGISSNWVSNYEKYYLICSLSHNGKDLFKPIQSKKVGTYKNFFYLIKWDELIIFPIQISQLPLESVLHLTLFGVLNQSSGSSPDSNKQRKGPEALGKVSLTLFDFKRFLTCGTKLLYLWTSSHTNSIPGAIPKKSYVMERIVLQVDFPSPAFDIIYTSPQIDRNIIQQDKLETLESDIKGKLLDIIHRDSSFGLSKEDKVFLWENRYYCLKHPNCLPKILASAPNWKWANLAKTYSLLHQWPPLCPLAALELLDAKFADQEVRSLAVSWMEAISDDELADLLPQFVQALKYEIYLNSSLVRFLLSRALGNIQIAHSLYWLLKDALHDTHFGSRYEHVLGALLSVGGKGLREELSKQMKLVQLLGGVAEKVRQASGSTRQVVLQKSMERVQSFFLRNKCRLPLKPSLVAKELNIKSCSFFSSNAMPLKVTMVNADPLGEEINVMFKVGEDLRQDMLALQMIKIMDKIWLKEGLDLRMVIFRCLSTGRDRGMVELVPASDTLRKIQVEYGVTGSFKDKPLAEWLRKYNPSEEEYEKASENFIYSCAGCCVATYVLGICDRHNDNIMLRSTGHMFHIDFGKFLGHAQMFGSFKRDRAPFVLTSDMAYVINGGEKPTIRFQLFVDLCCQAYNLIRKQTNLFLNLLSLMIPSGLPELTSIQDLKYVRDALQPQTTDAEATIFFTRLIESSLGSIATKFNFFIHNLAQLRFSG

B1: GST-distal C2 (PI3KC2α amino acids 1,561–1,686) (domain or fragment, mouse, UniProt Q61194 1561-1686, looked up)
chain: GAVKLSVSYRNGTLFIMVMHIKDLVTEDGADPNPYVKTYLLPDTHKTSKRKTKISRKTRNPTFNEMLVYSGYSKETLRQRELQLSVLSAESLRENFFLGGITLPLKDFNLSKETVKWYQLTAATYL
notes: PI3KC2α, mouse, C-terminal (distal) C2 domain, amino acids 1,561-1,686; also called GST-C2; GST-tagged C2; source: E. coli (pGEX-4T-1), immobilized GST fusion protein
binding result [1]: binds
binding result [2]: binds
